From US20230174596A1 (published 2023)

T1: hVEGF-A (8-109) (human, UniProt P15692 214-315)
T1 construct: residue numbers count on mature VEGF-A; dimer
T1 sequence (looked up): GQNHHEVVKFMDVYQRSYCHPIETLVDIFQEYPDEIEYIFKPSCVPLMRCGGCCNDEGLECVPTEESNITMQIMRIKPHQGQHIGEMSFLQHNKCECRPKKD


Target: T1, hVEGF-A (8-109)
Test: spot phage ELISA

| ELISA | S/N | Binder |
| --- | --- | --- |
| 1.4 | 18.9 | GCQLMQPFWGCKQDSDCLAGCVCRWYNSCG (designed binder) [VEGF_CKP9.L5.7] |
| 1.2 | 12.8 | GCQVMQPAWGCKQDSDCLAGCVCHWYQSCG (designed binder) [VEGF_CKP9.L1.8] |
| 1 | 16.5 | GCQLLQPLWGCKQDSDCLAGCVCRWYQSCG (designed binder) [VEGF_CKP9.71] |
| 2.5 | 17.4 | GCDLMQPLWGCKQDSDCLAGCVCHWYQSCG (designed binder) [VEGF_CKP9.L1.76] |
| 3 | 25.1 | GCNPMLPLWGCKQDSDCLAGCVCHWYQSCG (designed binder) [VEGF_CKP9.L1.78] |
| 0.9 | 13.6 | GCQLMQPFWGCKQDSDCLAGCVCRWYHSCG (designed binder) [VEGF_CKP9.L5.43] |
| 2 | 23.2 | GCDIMQPLWGCKQDSDCLAGCVCHWYQSCG (designed binder) [VEGF_CKP9.L1.68] |
| 1.4 | 11.6 | GCHRLQPLWGCKQDSDCLAGCVCHWYQSCG (designed binder) [VEGF_CKP9.L1.19] |
| 3.7 | 31.8 | GCNPMLPFWGCKQDSDCLAGCVCHWYQSCG (designed binder) [VEGF_CKP9.L1.57] |
| 1.6 | 20.4 | GCQLMQPFWGCKQDSDCLAGCVCHWYQSCG (designed binder) [VEGF_CKP9.L5.18] |
| 2.3 | 19.9 | GCNVLLPLWGCKQDSDCLAGCVCHWYQSCG (designed binder) [VEGF_CKP9.L1.64] |
| 4.1 | 57.5 | GCRTPWEPHDITCKQDSDCLAGCVCGPNGFCG (designed binder) [VEGF_CKP11] |
| 1.2 | 10 | GCQVLQPSWGCKQDSDCLAGCVCHWYQSCG (designed binder) [VEGF_CKP9.L1.79] |
| 1.2 | 18.4 | GCKLFEPLWGCKQDSDCLAGCVCRWYESCG (designed binder) [VEGF_CKP9.96] |
| 1.5 | 8.9 | GCQVMRPFWGCKQDSDCLAGCVCHWYQSCG (designed binder) [VEGF_CKP9.L1.7] |
| 0.6 | 10 | GCRLLEPSWGCKQDSDCLAGCVCQWYQSCG (designed binder) [VEGF_CKP9.72] |
| 1.6 | 12.5 | GCHLFEPLWGCKQDSDCLAGCVCHWYQSCG (designed binder) [VEGF_CKP9.L1.2] |
| 1.3 | 15.5 | GCHLLLPLWGCKQDSDCLAGCVCRWYHSCG (designed binder) [VEGF_CKP9.76] |

More lines, now with the values behind:

| Binder | ELISA | S/N |
| --- | --- | --- |
| GCKKWQWWYMCKQDSDCLAGCVCYPWTECG (designed binder) [VEGF_CKP4] | 2.6 | 35.3 |
| GCNIMLPFWGCSRDFDCLAGCVCQYYQSCG (designed binder) [VEGF_CKP9.54.44] | 2.4 | 34.4 |
| GCQLMHPFWGCKQDSDCLAGCVCHWYRSCG (designed binder) [VEGF_CKP8] | 3.9 | 59.4 |
| GCKLLQPMWGCKQDSDCLAGCVCRWYQSCG (designed binder) [VEGF_CKP9.14] | 2 | 30.1 |
| GCNIMLPFWGCNRDFLCLAGCVCQYYQSCG (designed binder) [VEGF_CKP9.54.48] | 2.5 | 34.9 |
| GCNIMLPFWGCGTNFLCLAGCVCQYYQSCG (designed binder) [VEGF_CKP9.54.31] | 2.3 | 32.5 |
| GCNIMLPFWGCGVDYLCLAGCVCQYYQSCG (designed binder) [VEGF_CKP9.54.16] | 2.4 | 30.8 |
| GCDVLQPFWGCKQDSDCLAGCVCHWYQSCG (designed binder) [VEGF_CKP9.2] | 2.4 | 31.1 |
| GCNIMLPFWGCGWDQFCLAGCVCQYYQSCG (designed binder) [VEGF_CKP9.54.51] | 2.5 | 44.5 |
| GCQISQPFWGCKQDSDCLAGCVCHFYNSCG (designed binder) [VEGF_CKP9.3] | 1.6 | 24.5 |
| GCKIMQPLWGCKQDSDCLAGCVCLWYDSCG (designed binder) [VEGF_CKP9.47] | 1 | 14.6 |
| GCQLLEPMWGCKQDSDCLAGCVCHWYNSCG (designed binder) [VEGF_CKP9.9] | 1.1 | 19.7 |
| GCNIMLPFWGCGLDYDCLAGCVCQYYQSCG (designed binder) [VEGF_CKP9.54.2] | 0.1 | 26 |
| GCNIMLPFWGCQADYACLAGCVCQYYQSCG (designed binder) [VEGF_CKP9.54.14] | 2.5 | 23.5 |
| GCALLQPLWGCKQDSDCLAGCVCRWYNSCG (designed binder) [VEGF_CKP9.69] | 1 | 14.3 |
| GCPRILMRCKQDSDCLAGCVCGPNGFCG [EETI-II] | 0.01 | 1.11 |
| GCNLMHPFWGCKQDSDCLAGCVCHWYQSCG (designed binder) [VEGF_CKP9.51] | 1 | 11 |
| GCDRMQPYWGCKQDSDCLAGCVCQWYKSCG (designed binder) [VEGF_CKP9.11] | 1.1 | 14.1 |
| GCNIMLPFWGCGPELNCLAGCVCQYYQSCG (designed binder) [VEGF_CKP9.54.12] | 2.4 | 38.8 |
| GCQRTQPFWGCKQDSDCLAGCVCRWYQSCG (designed binder) [VEGF_CKP9.22] | 1.2 | 17.2 |
| GCPAIQNWKEHPCKQDSDCLAGCVCSWWPSLCG (designed binder) [VEGF_CKP5] | 1.9 | 28.4 |
| GCNIMLPFWGCGQSFECLAGCVCQYYQSCG (designed binder) [VEGF_CKP9.54.1] | 2.4 | 29.9 |
